Source: patent publication US20180072783A1 (published 2018)
Values belong to the binder of their own block, whether it stands above or below them.

Target: T1, Ang2 (UniProt O15123 19-496)
T1 chain: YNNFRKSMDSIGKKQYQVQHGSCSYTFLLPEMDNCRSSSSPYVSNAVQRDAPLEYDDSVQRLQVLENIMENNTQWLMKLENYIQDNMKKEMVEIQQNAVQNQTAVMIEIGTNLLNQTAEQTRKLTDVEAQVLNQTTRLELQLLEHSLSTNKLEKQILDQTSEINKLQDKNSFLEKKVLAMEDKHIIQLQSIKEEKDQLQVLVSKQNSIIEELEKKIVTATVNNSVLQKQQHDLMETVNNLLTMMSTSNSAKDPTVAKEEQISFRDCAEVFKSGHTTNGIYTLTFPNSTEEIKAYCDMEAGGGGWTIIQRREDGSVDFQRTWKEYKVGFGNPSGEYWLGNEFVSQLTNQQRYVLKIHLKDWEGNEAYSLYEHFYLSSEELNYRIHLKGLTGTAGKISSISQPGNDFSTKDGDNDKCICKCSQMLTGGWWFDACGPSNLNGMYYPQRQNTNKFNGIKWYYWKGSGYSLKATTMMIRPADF
Test: direct binding ELISA; MBP fusion

EC50: 0.153 nM
B1: L1-7D MDD (ZC12) (peptide)
chain: AQTNFMPMDNDEGLLYEQFI

EC50: > 100 nM
B2: L1-7D MVD (2A1) (peptide)
chain: AQTNFMPMDNDEGLLYEEFI

EC50: 0.411 nM
B3: L1-7D MND (4H4) (peptide)
chain: AQTNFMPMDQDELLLYEQFI

EC50: 1.38 nM
B4: L1-7D MSD (7B2) (peptide)
chain: KSLSLSPGGNGTTNFMPMDQDEALLYEEFI

EC50: > 100 nM
B5: L1-7D MKD (5A8) (peptide)
chain: AQTNFMPMDDDELLLYEQFIL

EC50: 17 nM
B6: L1-7D MHD (3C3) (peptide)
chain: AQTNFMPMDNDEALLYEEFI

EC50: > 100 nM
B7: L1-7D MAD (6A3) (peptide)
chain: AQTNFMPMDQDEALLYEEFIC

EC50: > 100 nM
B8: L1-7D MQD (1A12) (peptide)
chain: AQTNFMPMDNDEALLYEQFI
